What was measured:
Assay in all cases: EMSA
[1] = molecular target: GST-TLS 211-526 (UniProt P35637 211-526)
[2] = molecular target: TLS (UniProt P35637 1-526)
[3] = molecular target: GST-TLS 373-526 (UniProt P35637 373-526)
Sequence of GST-TLS 373-526 (P35637 373-526): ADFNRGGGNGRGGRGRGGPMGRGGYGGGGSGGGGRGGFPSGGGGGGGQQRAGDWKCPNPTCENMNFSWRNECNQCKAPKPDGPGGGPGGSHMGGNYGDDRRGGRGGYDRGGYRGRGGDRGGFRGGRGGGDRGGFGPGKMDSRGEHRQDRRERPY

Sequence of TLS (P35637 whole entry): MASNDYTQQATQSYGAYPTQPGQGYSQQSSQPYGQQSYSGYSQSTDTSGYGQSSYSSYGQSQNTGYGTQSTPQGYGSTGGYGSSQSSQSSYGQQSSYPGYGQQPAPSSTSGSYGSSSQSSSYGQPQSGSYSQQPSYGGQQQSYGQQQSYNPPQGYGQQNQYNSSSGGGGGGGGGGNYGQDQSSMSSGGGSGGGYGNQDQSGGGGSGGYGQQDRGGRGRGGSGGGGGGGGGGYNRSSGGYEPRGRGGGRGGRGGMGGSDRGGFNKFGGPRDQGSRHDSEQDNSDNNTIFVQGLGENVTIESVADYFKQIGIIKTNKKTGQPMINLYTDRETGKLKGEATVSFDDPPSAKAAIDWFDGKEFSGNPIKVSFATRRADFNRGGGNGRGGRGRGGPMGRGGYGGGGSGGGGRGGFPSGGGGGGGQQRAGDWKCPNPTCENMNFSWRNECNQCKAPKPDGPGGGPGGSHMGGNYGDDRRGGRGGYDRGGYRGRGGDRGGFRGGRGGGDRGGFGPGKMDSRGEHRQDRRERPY
Sequence of GST-TLS 211-526 (P35637 211-526): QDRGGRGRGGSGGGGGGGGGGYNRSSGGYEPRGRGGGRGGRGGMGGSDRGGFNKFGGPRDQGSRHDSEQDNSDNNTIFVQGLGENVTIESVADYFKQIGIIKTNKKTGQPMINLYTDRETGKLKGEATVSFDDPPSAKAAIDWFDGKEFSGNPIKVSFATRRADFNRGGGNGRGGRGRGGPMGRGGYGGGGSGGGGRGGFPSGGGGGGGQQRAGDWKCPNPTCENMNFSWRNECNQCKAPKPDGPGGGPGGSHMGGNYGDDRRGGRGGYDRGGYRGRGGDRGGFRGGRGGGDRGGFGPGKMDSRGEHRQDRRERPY

UUGUAUUUUGAGCUAGUUUGGUGAC (ssRNA) [GGUG-oligonucleotide]: binds [1]; binds [2]; binds [3].

B1: RNA:DNA hybrid of -454s (DNA:RNA)
RNA: UCUGCCGGCUUGGAUAUGGGGUGUC
DNA: GACACCCCATATCCAAGCCGGCAGA
B1: no binding [2].

UCUGCCGGCUUGGAUAUGGGGUGUC (ssRNA) [-454s (RNA in Fig. 4g)]: binds [2].

CCCGGGAUUUAGGGGGUGAGGUGGA (ssRNA) [-341a]: binds [2].

UCCAGCAGCAGCCCAAGAUGGUGGC (ssRNA) [-764a]: no binding [2].

UGGCAUCGUGAUGGACUCCGGUGAC (ssRNA) [β-actin RNA]: no binding [2].

GACACCCCATATCCAAGCCGGCAGA (ssDNA) [DNA (complement of -454s)]: no binding [2].

Source: article PMC2823488
